Measurements from patent US20030153041A1.

What was measured:
[1] = biological target: human kidney PTH/PTHrP receptor (full-length cDNA HKrk) (human); test: radioreceptor assay, radiolabelled ligand (~200,000 cpm) on COS-7 cells expressing the human receptor
[2] = biological target: rat bone PTH/PTHrP receptor clone R15B (rat); test: radioreceptor assay, radiolabelled ligand (~200,000 cpm) on COS-7 cells expressing R15B
[3] = biological target: human kidney PTH/PTHrP receptor (full-length cDNA HKrk) (human); test: apparent Kd, competitive radioreceptor assay on COS-7 cells expressing the human receptor (FIG. 17)
[4] = biological target: rat bone PTH/PTHrP receptor clone R15B (rat); test: apparent Kd, competitive radioreceptor assay on COS-7 cells expressing the rat bone receptor (FIG. 17)
[5] = biological target: opossum kidney PTH/PTHrP receptor clone OK-H (opossum); test: cell-based or functional assay
[6] = biological target: human kidney PTH/PTHrP receptor (full-length cDNA HKrk) (human); test: competitive radioreceptor assay on COS-7 cells; human receptor against rat bone receptor
[7] = biological target: human kidney PTH/PTHrP receptor (full-length cDNA HKrk) (human); test: competitive radioreceptor assay on COS-7 cells; HKrK against R15B
[8] = biological target: human kidney PTH/PTHrP receptor (full-length cDNA HKrk) (human); test: affinity from competitive radioreceptor assay on COS-7 cells expressing HKrK
[9] = biological target: rat bone PTH/PTHrP receptor clone R15B (rat); test: affinity from competitive radioreceptor assay on COS-7 cells expressing R15B
[10] = biological target: human kidney PTH/PTHrP receptor (full-length cDNA HKrk) (human); test: affinity from competitive radioreceptor assay on COS-7 cells expressing HKrk
[11] = biological target: human kidney PTH/PTHrP receptor (full-length cDNA HKrk) (human); test: competitive radioreceptor assay on COS-7 cells; human receptor against rat receptor

| Substance | specific binding [1] [%] | specific binding [2] [%] | Kd [3] [nM] | Kd [4] [nM] | concentration of intracellular free calcium (Fura-2) [5] [nm] | fold difference in apparent Kd against the rat bone PTH/PTHrP receptor [6] [fold] | fold higher affinity against R15B [7] [fold] | Kd [8] [nM] | Kd [9] [nM] | Kd [10] [nM] | fold lower affinity against the rat receptor [11] [fold] |
| --- | --- | --- | --- | --- | --- | --- | --- | --- | --- | --- | --- |
| [Nle^8,18, Tyr^34]bPTH(1-34)amide (from UniProt P01268 32-65) (peptide) | 10.1 | 8.1 | 5 | 10 | 39 | 2 | – | – | – | – | – |
| [Nle^8,18, Tyr^34]bPTH(3-34)amide (from UniProt P01268 34-65) (peptide) | – | – | – | – | – | – | 7 | 7 | 45 | – | – |
| [Nle^8,18, Tyr^34]bPTH(7-34)amide (from UniProt P01268 38-65) (peptide) | – | – | – | – | – | – | 35 | 60 | 2000 | – | – |
| [Tyr^36]PTHrP(1-36)amide (from UniProt P12272 37-72) (peptide) | 7.6 | 7.1 | – | – | – | – | – | – | 10 | 35 | 2 to 4 |
